In the nanobody polyreactivity screen of Harvey et al. (2022):

Assay: yeast display, Sf9 membrane polyspecificity reagent, FACS + sequencing; frameworks hold sequencing errors
Summary of the method: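 Galactose-induced (36–48 hours) yeast carrying a synthetic nanobody display library were exposed to 10% biotinylated, detergent-solubilized Sf9 membrane reagent at 4 °C for 1 hour. FACS followed streptavidin microbead enrichment, using low and high (top ~1%) gates for expression (anti-HA) and reagent binding (streptavidin). Colony PCR, MiSeq 2 × 250 sequencing and CDR-length filtering followed. Labels for polyreactivity reflect the gate of origin.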

Sequence | polyreactivity (PSR sort gate)
QVQLVESGGGLVQAGGSLRLSCAASGSTFHWYVMGWYRQAPAKERELVAAITWSGGSTYYADSVKGRFTISRDNAKNTVYLQMNSLKPEDTAVYYCNAVFWIWNAGYDYWGQGTQVTVSS | low polyreactivity
QVQLVESGGGLVQSGGSLRLSCAASGRTFRYYVMGWYRQAPGKERELVADISRGGGRTRYADSVKGRFTISRDNAKNTVYLQMNSLKRDDTAVYYCGARSYSGQFGYWGQGTQVTVSS | high polyreactivity
QFQLVESCGGLVPAGGSLRLSCAASGRILSDYAMGWYRQAPGKERELVAVISWDGTNTYYADSVKGRFPISRDNAKNTVYLQMNSLKPEDTAVYYCAATGTSYYSAYDYWGQGTQVTVSS | low polyreactivity
QVQLVESGGGLVQAGGSLRLSCAASGGIFPAYAMGWYRQAPGKERELVAAITSSGASTYADSVKGRFTISRDNAKNTVYLQMNSLKPEDTAVYYCNADDTTVILEMDYWGQGTQVTVSS | low polyreactivity
QVQLVESGGGLVQAGGSLRLSCADSGSIFWGYAMGWYRQAPGKERELVAVISRGGSTYYADSVKGRFTISRDNAKNTVYLQMNSLKPEDTAVYYCAASSSWFYSPEYDYWGQGTQVSVSS | low polyreactivity
QVQLVESGGGLVQAGGSLRLSCAASGRIFAFNAMGWYRQAPGKERELVADITSSGVNTYYADSVKGRFTISRDNAKNTVYLQMNSLKPEDTAVYYCAARSYLRWWVGMEYCGQGTQVTVSS | low polyreactivity
QVQLVESGGGLVQAGGSLRLSCAASGSTFSTNAMGWYRQAPGKERELVASITRSGGSTYYADSVKGRFTISRDNAKNTFYLLMNSLKPEDTAVYYCNADGYYDYDYGYWGQGTQVTVSS | low polyreactivity
QVQLVESGGGLVHAGGSLRLSCAASGIIFDDYAMGWNRQAPGKERELVAAIRSGVSTNYADSVKGRFTISRDNAKNTVYLQMNSLKPEDTAVYYCAARNTAPYFTEYDYWGQGTQVTVSS | low polyreactivity
QVQLVESGGGLVQAGGSLRLSCAASGRTFKWYAMGWYRQAPGKERELVAAISSSGSTYYADSVKGRFTISRDNAKNTVYLQMNSLKPEDTAVYYCAVLRRYLVGNLVGYNYWGQGTQVTVSS | high polyreactivity
QVQLVESGGGLVQAGGRLRLSCAASGFIFKQYVMGWYRQAPGKERELVAAISRSGGSTYYADSVKGRFTISRDNAKNTVYLQMNSLKPEDNAVYYCNADNYYPDYDSWGQGTQVTVSS | high polyreactivity
QVQLVESGGGLVQAGGSLRLSCAASGLTFDYYAMGWYRQAPGKERELVAAITRRGGGTYYADSVKGRFTISRDNAKNTVYLQMNSLTPEDTAVYYCNADRRSWSALHRYDYWGQGTQVTVSS | high polyreactivity
QVQIVDSGGGLVQAVGSLRLSCAASGSIIKKYAMGWYRQAPGKERELVAAISSTCGSTKYADSVKGRFTISRDNAKNTVYLQMNSLKAEDTAVYYCAVRYKWPYDYWGQGTQVTVSS | high polyreactivity
QVQLVESGGGLVQAGGSLRLSCAASGSTFWSYAMGWYRQAPGKEREFVAAISRSGDSTYYADSVKGRFTISRDNAKNTVYLQMNSLNPEDTAVYYCNAKLVRRSYGSYYYTYDYWGQGSQVTVSS | high polyreactivity
QVQLVESGAGLVQAGGSLRLSCAASGSIFDYYAMGLYRQAPGKERELVAVITRGGSTYYADSVKGRFTISRDNAKNTDSLQMNSLKPEDTAVYYCNASRGYKSRYEYWGQGTQVTVSS | high polyreactivity
QVQLVESGGGLVQAGGSLRLSCAASGRIFFPYDMGWYRQAPGKERELVAAITNSGGRTYYADSVKGRFTISRDNAKNTVYLQMNSLKPEDTAVYYCNADAYEFRWVKHYDYWGQGTQVTVSS | low polyreactivity
QVQLVESGGVLVQAGGSLRLSCAASGRIFLEYAMGWYRQAPGKERELVAAISRGGGRTYYADSVKGRFTISRDNAKNTVYLLMNSLKPEDTAVYYCAAGLAKGYWASFAYRYDYWGQGTQVTVSS | high polyreactivity

Sequence | polyreactivity (PSR sort gate)
QVHLVESGGGLVQAGGSLRLSCAASGSTFVTYTMGWYRQAPGKERELVATITASGGSTYYADSVKGRFTISRDNEKNTVYLQMNSLKPEYTAVYYCAKRRSPVERYDFWGQGTQVTVSS | low polyreactivity
QVQLVESGGGLVQAGGSLRLSCAASGFTFQDYAMGWYRQAPGKERELVAAISTSDGNTYYADSVKGRFTISRDNAKNTVYLQMNSLKPEDTAVYYCAAQRNYGWVKFYYWGQGTQVTVSS | high polyreactivity
QVQVVDSGGGLVQAGGSLLLSCAASGSILGFNAMGWYRQSPGKEMELVASISSSGDSTYYADSEKGRFTISRDNAKNTVYLQMNSLKPEDTAVYYCATEGRTDYNREMEYWGQGSQVTVSS | low polyreactivity
QVQLVESGGGLVQAGGSLRLSCAASGFIGSNTMGWYRQAPGKERELVAAISWSGGSTYYADSVKGRFTISRDNAKNTVYLQMNSLKPEDTAVYYSAARRNSRARRTFGYWGQGTQVTVSS | high polyreactivity
QVQLVESRGGLVQAGGSLRLSCAASGRIFSSYAMGWYRQAPGKERELVAAISSRGGSTYYADSVKGRFTISRDNAKNTVYLQMNSLKPDDTAVYYCARVKYSGVVYKYDYWGQGTQVTVSS | high polyreactivity
QVQIVESGGGLVQAGGSLRLSCAASGFIIGKYTMGWYRQAPGKEREFVAAIRRSGASTYYADSVKGRFTISRDNAKNTVYLQMNSLKPEDTAVYYCSQAGYSPVYGYWGQGTQVTVSS | high polyreactivity
QVQLVESGGGLVQAGGSLRLSCAASGITFWVYAMGWYRQSPGKESELVATISRSGGRTYYADSVKGRFTISRDNAKTTVYLQMNSLKPEDTAVYYCAARYRNVLGYDYDFWGQGTQVTVSS | high polyreactivity
QVQLVESGGGLVQAGGSLRLSCAASGSIFGGNDMGWYRQAPGKERELVAAITSSGGSTYYADSVKGRFTISRDNAKNTVYLQMNSLKPEDTAVYYCYADYYGPYRDYGYWGQGTQVTVSS | low polyreactivity
QVQLVESGGGLVQAGGSLRLSCAASGITFPDYDMGWYRQAPGKERELVAAITYRSGSTYYADSVKGRFTISRDNAKNTVYLQMNSLKPEDTAVYYCNKYGQVPGYFSLDYWGQGTQVTVSS | high polyreactivity
QVQLVESVGGLVQAGGSLRLSCAASGYILPKNTMGWYIQAPGKERELVAAISWSGGSTFYADSVKGRFTISRDNAKNTVYLQMNRLKPEDTAVYYCAADRSWSWYYRYDYWGQGTQVTVSS | low polyreactivity
QVQLVESGGGLVQAGGSLRLSCAASGSTFYTNAMGWYRQAPGKERELVAAISYSGGGTYYADSVKGRFTISRDNAKNTVYLQMNSLKPEDTAVYYCAADTLQRAFVLYDYWGQGTQVTVSS | high polyreactivity
QVQLVESGGGLVQAGGSLRLSSAASGSIFLGNAMGWYRQAPGKERELVAAISSITGRTYYADSVKGRFTISRDNAKNTVYLQMNSLKPEDTAVYYCAATSLIYGYRTYDYWGQGTQVTVSS | high polyreactivity
QVQLVESGGGLVQAGGSLRLSCAASGSTFYIYAMGWYRQAPGKERELVAAITSRGTITSYADSVKGRFTISRDNAKNTVYLQMNSLKPEDTAVYYCAADYWQDGIAYWYDYWGQGTQVTVSS | low polyreactivity
QVQLVESGGGLVQAGGSLRLSCAASGSIFWYYAMGWYRQAPGKERELVAAISASGSSTYYADSVKGRFTISRDNAKNTVYLQMNSLKPEDTAVYDCAATYSLYNDWLYHYFPEEYDYWGQGTQVTVSS | low polyreactivity
QVQLVESGGGLVQAGGSLRLSCAASGSTYAYDMGSYRQAPGKERELVAAISWDGGDTYYADSVKGRFTISRDNAKNTVYLQMNSLKPEDTAVYYCNTVFQRSGYAAGVDYWGQGTQVTVSS | high polyreactivity
QVQLVESGGGLVQAGGSLRLSCAASGNTFYVNVMGWYRQAPGKEREFVAAISTRGVSTSYADSVKGRFTISRDNAKNTVYLQMNSLKPEDTAVYYCAASFRRPQPKGTTYGYWGQGTQVTVSS | high polyreactivity
